Experiment [1] has as its target FVIII-XTEN-His-Myc, XTEN insertion A2, 399, AE144 (human). Kind of experiment: sandwich ELISA, antibody capture, anti-Myc detection, normalised to anti-His capture. On the technique in general: In an ELISA, binding on a coated surface is turned into a signal by an enzyme label.
Experiment [2] concerns the target FVIII-XTEN-His-Myc, XTEN insertion A2, 403, AE144 (human). The description is as above.
Experiment [3] deals with FVIII-XTEN-His-Myc, XTEN insertion A1, 40, AG144 (human). Described as above.
For experiment [4], the target named is FVIII-XTEN-His-Myc, XTEN insertion A1, 18, AG144 (human). The description is as above.
Experiment [5] deals with FVIII-XTEN-His-Myc, XTEN insertion A1, 26, AE144 (human). The experiment is described as above.
The target of experiment [6] is FVIII-XTEN-His-Myc, XTEN insertion A1, 26, AG144 (human). The experiment is described as above.
Experiment [7] concerns the target FVIII-XTEN-His-Myc, XTEN insertion A1, 18, AE144 (human). The description is as above.
For experiment [8], the target named is FVIII-XTEN-His-Myc, XTEN insertion A1, 40, AE144 (human). The experiment is described as above.
Experiment [9] addresses FVIII-His-Myc (non-XTEN containing FVIII-His-Myc protein) (human). The experiment is described as above.
The target of experiment [10] is FVIII-XTEN-His-Myc, XTEN insertion A3, 1656, AG144 (human). The description is as above.
In experiment [11] the target is FVIII-XTEN-His-Myc, XTEN insertion A2, 403, AG144 (human). The experiment is described as above.
Experiment [12] has as its target pBC0114 BDD FVIII base construct (pcDNA4-FVIII_4-…-Myc-SPATG-His) (human) (UniProt P00451). Kind of experiment: cell-based or functional assay.
Another experiment deals with pBC0149 (human) (UniProt P00451). As to the kind of experiment: cell-based or functional assay.

In the case of “ESH8 anti-FVIII antibody (American Diagnostica Inc.)”, the Concentration on aFVIII/Myc ÷ concentration on aHis/Myc in [1] is 140%; in experiment [2], 141%; in [3] it was 153%; in experiment [4] it was 131%; in [5], 87%; in [6], 147%. Also, the Concentration on aFVIII/Myc ÷ concentration on aHis/Myc was 130% in [7]; 147% in [8]; 104% in experiment [9]; 158% in experiment [10]; 129% in experiment [11].

As for GMA8008 FVIII inhibitor antibody, in [12], the Ratio to Control was 1. For the same substance, in the experiment with pBC0149 (human), the Ratio to Control turned out to be 0.8 and the Relative Remaining Activity was 0.1.

With “GMA-8021 anti-FVIII monoclonal antibody (Green Mountain Antibodies)”, the Ratio to Control in experiment [12] was 1; with pBC0149 (human), 1.3. In addition, the Relative Remaining Activity in the experiment with pBC0149 (human) was determined as 0.2. Also, the Concentration on aFVIII/Myc ÷ concentration on aHis/Myc in experiment [1] stood at 100%; in experiment [2], 103%; in [3] it was 164%; in [4], 150%; in experiment [5], 155%; in experiment [6] it was 157%. In addition, the Concentration on aFVIII/Myc ÷ concentration on aHis/Myc in experiment [7] is 129%; in experiment [8] it was 137%; in [9], 92%; in experiment [10] it was 153%; in experiment [11], 104%.

The record behind these values is patent US20230322900A1.
